Data reported in paper PMC12667517, “Gigaxonin Potentiates Antiviral Innate Immune Responses by Targeting cGAS and TREX1” (Advanced Science, 2025).

T1: endogenous IRF3 in THP-1 cells (human (endogenous in THP-1)), Q14653
T1 chain: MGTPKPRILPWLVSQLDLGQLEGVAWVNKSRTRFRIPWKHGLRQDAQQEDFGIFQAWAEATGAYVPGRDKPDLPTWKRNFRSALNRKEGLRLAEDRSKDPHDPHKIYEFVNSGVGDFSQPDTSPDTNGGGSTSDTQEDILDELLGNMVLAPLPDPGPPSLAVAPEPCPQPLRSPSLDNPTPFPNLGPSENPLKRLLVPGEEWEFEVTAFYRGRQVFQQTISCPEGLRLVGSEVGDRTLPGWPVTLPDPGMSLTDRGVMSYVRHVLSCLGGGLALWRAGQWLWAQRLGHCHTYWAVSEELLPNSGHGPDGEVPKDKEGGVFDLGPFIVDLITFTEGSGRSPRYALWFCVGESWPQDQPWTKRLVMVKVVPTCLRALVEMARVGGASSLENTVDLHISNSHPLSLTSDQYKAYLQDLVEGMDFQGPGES


Columns and labels:
[1] = molecular target: the molecule itself; assay: native gel or EMSA; native PAGE of THP-1 cell lysates, cells infected with HSV-1 (MOI = 1) for the indicated times
[2] = molecular target: T1, endogenous IRF3 in THP-1 cells (human …); assay: as above; details: remark: other sources report otherwise

Row | Binder | stoichiometry N [1] | stoichiometry N [2]
1 | endogenous gigaxonin in THP-1 cells (natural protein, human (endogenous in THP-1), UniProt Q9H2C0 1-597, looked up, By native PAGE both dimer and monomer in the steady state; source: endogenous, THP-1 lysate) MAEGSAVSDPQHAARLLRALSSFREESRFCDAHLVLDGEEIPVQKNILAAASPYIRTKLNYNPPKDDGSTYKIELEGISVMVMREILDYIFSGQIRLNEDTIQDVVQAADLLLLTDLKTLCCEFLEGCIAAENCIGIRDFALHYCLHHVHYLATEYLETHFRDVSSTEEFLELSPQKLKEVISLEKLNVGNERYVFEAVIRWIAHDTEIRKVHMKDVMSALWVSGLDSSYLREQMLNEPLVREIVKECSNIPLSQPQQGEAMLANFKPRGYSECIVTVGGEERVSRKPTAAMRCMCPLYDPNRQLWIELAPLSMPRINHGVLSAEGFLFVFGGQDENKQTLSSGEKYDPDANTWTALPPMNEARHNFGIVEIDGMLYILGGEDGEKELISMECYDIYSKTWTKQPDLTMVRKIGCYAAMKKKIYAMGGGSYGKLFESVECYDPRTQQWTAICPLKERRFGAVACGVAMELYVFGGVRSREDAQGSEMVTCKSEFYHDEFKRWIYLNDQNLCIPASSSFVYGAVPIGASIYVIGDLDTGTNYDYVREFKRSTGTWHHTKPLLPSDLRRTGCAALRIANCKLFRLQLQQGLFRIRVHSP | 2 | 
2 | endogenous IRF3 in THP-1 cells, Q14653 1-427 (natural protein) MGTPKPRILPWLVSQLDLGQLEGVAWVNKSRTRFRIPWKHGLRQDAQQEDFGIFQAWAEATGAYVPGRDKPDLPTWKRNFRSALNRKEGLRLAEDRSKDPHDPHKIYEFVNSGVGDFSQPDTSPDTNGGGSTSDTQEDILDELLGNMVLAPLPDPGPPSLAVAPEPCPQPLRSPSLDNPTPFPNLGPSENPLKRLLVPGEEWEFEVTAFYRGRQVFQQTISCPEGLRLVGSEVGDRTLPGWPVTLPDPGMSLTDRGVMSYVRHVLSCLGGGLALWRAGQWLWAQRLGHCHTYWAVSEELLPNSGHGPDGEVPKDKEGGVFDLGPFIVDLITFTEGSGRSPRYALWFCVGESWPQDQPWTKRLVMVKVVPTCLRALVEMARVGGASSLENTVDLHISNSHPLSLTSDQYKAYLQDLVEGMDFQGPGES |  | 2
